Tests used:
full length Itk = biological target: T1, full length Itk (Mus musculus, UniProt Q03526); test: In vitro Itk kinase assay using Peptide B as the substrate (initial velocities); type: biochemical; settings: full length Itk
T1 construct: made in house; host or cells: Sf9 insect cells (baculovirus), co-infected 1:1 with Lck baculovirus
T1 sequence (Q03526 1-625): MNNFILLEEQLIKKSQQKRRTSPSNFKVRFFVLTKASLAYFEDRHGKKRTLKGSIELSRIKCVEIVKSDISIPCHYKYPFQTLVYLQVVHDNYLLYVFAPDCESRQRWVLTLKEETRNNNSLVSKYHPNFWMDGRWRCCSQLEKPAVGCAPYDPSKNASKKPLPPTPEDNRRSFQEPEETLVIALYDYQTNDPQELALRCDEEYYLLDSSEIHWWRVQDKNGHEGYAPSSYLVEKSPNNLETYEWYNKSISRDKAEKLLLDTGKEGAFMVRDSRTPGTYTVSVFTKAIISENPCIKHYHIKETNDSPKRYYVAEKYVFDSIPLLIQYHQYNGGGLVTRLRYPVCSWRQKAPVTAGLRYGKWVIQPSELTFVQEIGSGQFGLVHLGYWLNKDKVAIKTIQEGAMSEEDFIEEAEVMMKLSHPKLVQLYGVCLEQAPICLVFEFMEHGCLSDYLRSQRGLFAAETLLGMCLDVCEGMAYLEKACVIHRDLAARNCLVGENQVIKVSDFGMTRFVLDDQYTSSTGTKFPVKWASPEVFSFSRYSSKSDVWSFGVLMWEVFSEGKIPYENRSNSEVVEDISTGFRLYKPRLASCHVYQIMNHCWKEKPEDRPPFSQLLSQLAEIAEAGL
Method: Substrate used in each experiment is indicated above each set of blots. 4(a) (left) Itk 32 substrate was incubated with Itk full-length enzyme as before (lane 1), or with Itk 32 domain:free Itk SH2 domain in ratios of 1:10, 1:25 or 1:50 (lanes 2-4, respectively) or equivalent ratios of PI3K N-terminal SH2 domain (lanes 5-7) and subjected to an in vitro kinase assay. […] Coomassie stain and an anti-FLAG blot (bottom panels) show protein levels. (right) The PLCγ1 SH2 domain competes with the PLCγ1 substrate in a similar manner. Lane 1 contains only Itk enzyme and PLCγ1 SH2C-Y783-substrate without additional free SH2 domain. Ratios of free SH2 domain to substrate are 1:5, 1:10 or 1:50 in lanes 2-4, respectively and equivalent ratios of PI3K SH2 domain are used in lanes 5-7. Coomassie stain of the gel and an anti-Itk blot (bottom panels) show protein levels. 4(b) Same experiment as shown in (a) using the Grb2 SH2 domain as a control. (left) Itk 32 substrate was incubated with Itk full-length enzyme (lane 1), or with Itk 32 domain:free Itk SH2 domain in ratios of 1:10 and 1:25 (lanes 2 & 3) or equivalent ratios of Grb2 SH2 domain (lanes 4 & 5) and subjected to an in vitro kinase assay. […]
The ratio of CypA to Itk varied between o and 100 times excess CypA. […] No change in Peptide B phosphorylation is detected. […]

Lck kinase domain = test: Pull-down assay of Lck kinase domain with Itk SH2 domain; type: binding; settings: anti-Myc immunoprecipitation, anti-His blot
Source text: The Itk SH2 domains were immunoprecipitated using an anti-Myc antibody and the samples were western blotted with an anti-His antibody to detect the presence of the Lck kinase domain. Lanes 1 and 2 are beads alone control.
The samples were washed, boiled, resolved on an SDS-PAGE gel, transferred to PVDF membrane and western blotted with an anti-His antibody (clone HIS.H8 from Upstate). • (1) Wilcox, H. M., and Berg, L. J. (2003) Itk phosphorylation sites are required for functional activity in primary T cells. J Biol Chem 278, 37112-21. • (2) Hawkins, J., and Marcy, A. (2001) Characterization of Itk tyrosine kinase: contribution of noncatalytic domains to enzymatic activity. Protein Expr Purif 22, 211-9.

levels of peptide B phosphorylation (initial velocity) with increasing concentrations of SH2 domain (full length Itk): do not change significantly
interaction with Lck kinase domain (pull-down) (Lck kinase domain): direct interaction
B1: Itk SH2 domain: isolated exogenous SH2 domain of Itk, purified from bacteria (protein)
chain: EWYNKSISRDKAEKLLLDTGKEGAFMVRDSRTPGTYTVSVFTKAIISENPCIKHYHIKETNDSPKRYYVAEKYVFDSIPLLIQYHQYNGGGLVTRLRYPVCSWRQKA

Source: patent US20090010911A1, “METHODS AND COMPOSITIONS FOR AFFECTING CYCLOPHILIN A REGULATION OF KINASES IN MODULATING CELLULAR ACTIVITIES” (IOWA STATE UNIVERSITY RESEARCH FOUNDATION, INC., priority 2007, published 2009)
